Measurements: patent publication US20260209386A1 (MYTHIC THERAPEUTICS, published 2026)

B1: MYT11258 (antibody, V domains shown)
VH: EVQLVESGGGLVQPGGSLRLSCTASGIDLHRYSMGWVRQAPGKGLEWVGIISYGGSTYYASWAKGRFTISRDTSKNTVYLQMNSLRAEDTAVYFCARVGYPGYSGYGYAFDAFDPWGQGTLVTVSS
VL: EIVMTQSPSTLSASVGDRVIITCQSSKSVYNDNWLSWYQQKPGKAPKLLIYGASTLASGVPSRFSGSGSGAEFTLTISSLQPDDFATYYCAGGYSSSSDNGFGQGTKLTVL
notes: IgG
B2: MYT11267 (antibody, V domains shown)
VH: EVQLVESGGGLVQPGGSLRLSCTASGIDLSRYSMGWVRQAPGKGLEWVGIISHGGSTYYASWAKGRFTISRDTSKNTVYLQMNSLRAEDTAVYFCARVGYPGYSGYGYAFDAFDPWGQGTLVTVSS
VL: EIVMTQSPSTLSASVGDRVIITCQSSKSVYNDNWLSWYQQKPGKAPKLLIYGASTLASGVPSRFSGSGSGAEFTLTISSLQPDDFATYYCAGGYSSSSDNGFGQGTKLTVL
notes: IgG
B3: MYT11322 (antibody, V domains shown)
VH: EVQLVESGGGLVQPGGSLRLSCTASGIDLSRYSMGWVRQAPGKGLEWVGIISYGGSTYYASWAKGRFTISRDTSKNTVYLQMNSLRAEDTAVYFCARVGYPGYSGYGYAFDAFDPWGQGTLVTVSS
VL: EIVMTQSPSTLSASVGDRVIITCQSSKSVYNDNWLSWYQQKPGKAPKLLIYGASTLHSGVPSRFSGSGSGAEFTLTISSLQPDDFATYYCAGGYSSSSDNGFGQGTKLTVL
notes: IgG
B4: MYT11279 (antibody, V domains shown)
VH: EVQLVESGGGLVQPGGSLRLSCTASGIDLSRYSMGWVRQAPGKGLEWVGIISYGGSTYYASWAKHRFTISRDTSKNTVYLQMNSLRAEDTAVYFCARVGYPGYSGYGYAFDAFDPWGQGTLVTVSS
VL: EIVMTQSPSTLSASVGDRVIITCQSSKSVYNDNWLSWYQQKPGKAPKLLIYGASTLASGVPSRFSGSGSGAEFTLTISSLQPDDFATYYCAGGYSSSSDNGFGQGTKLTVL
notes: IgG
B5: MYT11285 (antibody, V domains shown)
VH: EVQLVESGGGLVQPGGSLRLSCTASGIDLSRYSMGWVRQAPGKGLEWVGIISYGGSTYYASWAKGRFTISRDTSKNTVYLQMNSLRAEDTAVYFCARVGYHGYSGYGYAFDAFDPWGQGTLVTVSS
VL: EIVMTQSPSTLSASVGDRVIITCQSSKSVYNDNWLSWYQQKPGKAPKLLIYGASTLASGVPSRFSGSGSGAEFTLTISSLQPDDFATYYCAGGYSSSSDNGFGQGTKLTVL
notes: IgG
B6: MYT11309 (antibody, V domains shown)
VH: EVQLVESGGGLVQPGGSLRLSCTASGIDLSRYSMGWVRQAPGKGLEWVGIISYGGSTYYASWAKGRFTISRDTSKNTVYLQMNSLRAEDTAVYFCARVGYPGYSGYGYAFDAFDPWGQGTLVTVSS
VL: EIVMTQSPSTLSASVGDRVIITCQSSKSHYNDNWLSWYQQKPGKAPKLLIYGASTLASGVPSRFSGSGSGAEFTLTISSLQPDDFATYYCAGGYSSSSDNGFGQGTKLTVL
notes: IgG
B7: MYT11272 (antibody, V domains shown)
VH: EVQLVESGGGLVQPGGSLRLSCTASGIDLSRYSMGWVRQAPGKGLEWVGIISYGGSTHYASWAKGRFTISRDTSKNTVYLQMNSLRAEDTAVYFCARVGYPGYSGYGYAFDAFDPWGQGTLVTVSS
VL: EIVMTQSPSTLSASVGDRVIITCQSSKSVYNDNWLSWYQQKPGKAPKLLIYGASTLASGVPSRFSGSGSGAEFTLTISSLQPDDFATYYCAGGYSSSSDNGFGQGTKLTVL
notes: IgG
B8: MYT11289 (antibody, V domains shown)
VH: EVQLVESGGGLVQPGGSLRLSCTASGIDLSRYSMGWVRQAPGKGLEWVGIISYGGSTYYASWAKGRFTISRDTSKNTVYLQMNSLRAEDTAVYFCARVGYPGYSHYGYAFDAFDPWGQGTLVTVSS
VL: EIVMTQSPSTLSASVGDRVIITCQSSKSVYNDNWLSWYQQKPGKAPKLLIYGASTLASGVPSRFSGSGSGAEFTLTISSLQPDDFATYYCAGGYSSSSDNGFGQGTKLTVL
notes: IgG
B9: MYT11263 (antibody, V domains shown)
VH: EVQLVESGGGLVQPGGSLRLSCTASGIDLSRYSMHWVRQAPGKGLEWVGIISYGGSTYYASWAKGRFTISRDTSKNTVYLQMNSLRAEDTAVYFCARVGYPGYSGYGYAFDAFDPWGQGTLVTVSS
VL: EIVMTQSPSTLSASVGDRVIITCQSSKSVYNDNWLSWYQQKPGKAPKLLIYGASTLASGVPSRFSGSGSGAEFTLTISSLQPDDFATYYCAGGYSSSSDNGFGQGTKLTVL
notes: IgG
B10: MYT11249 (antibody, V domains shown)
VH: EVQLVESGGGLVQPGGSLRLSCTASGIDLSSYVMGWVRQAPGKGLEWVGYIYGGGGTYYATWARGRFTISRDTSKNTVYLQMNSLRAEDTAVYFCARAAADFYFNLWGQGTLVTVSS
VL: EIVMTQSPSTLSASVGDRVIITCQASQSISSYLAWYQQKPGKAPKLLIYDISDLASGVPSRFSGSGSGAEFTLTISSLQPDDFATYYCQSYYWISNSGAHFGQGTKLTVL
notes: IgG
B11: MYT11349 (antibody, V domains shown)
VH: EVQLVESGGGLVQPGGSLRLSCTASGIDLSNYAVIWVRQAPGKGLEWVGHIYTYDTTYYANWAKGRFTISRDTSKNTVYLQMNSLRAEDTAVYFCARSFSDISDLIKLWGQGTLVTVSS
VL: EIVMTQSPSTLSASVGDRVIITCQASQSLYNNKDLAWYQQKPGKAPKLLIYEASKLASGVPSRFSGSGSGAEFTLTISSLQPDDFATYYCLGEFSCGSGDCLAFGQGTKLTVL
notes: IgG
B12: MYT11363 (antibody, V domains shown)
VH: EVQLVESGGGLVQPGGSLRLSCTASGIDLSNYAVIWVRQAPGKGLEWVGIIYTYDTTYYANWAHGRFTISRDTSKNTVYLQMNSLRAEDTAVYFCARSFSDISDLIKLWGQGTLVTVSS
VL: EIVMTQSPSTLSASVGDRVIITCQASQSLYNNKDLAWYQQKPGKAPKLLIYEASKLASGVPSRFSGSGSGAEFTLTISSLQPDDFATYYCLGEFSCGSGDCLAFGQGTKLTVL
notes: IgG
B13: MYT11369 (antibody, V domains shown)
VH: EVQLVESGGGLVQPGGSLRLSCTASGIDLSNYAVIWVRQAPGKGLEWVGIIYTYDTTYYANWAKGRFTISRDTSKNTVYLQMNSLRAEDTAVYFCARSFHDISDLIKLWGQGTLVTVSS
VL: EIVMTQSPSTLSASVGDRVIITCQASQSLYNNKDLAWYQQKPGKAPKLLIYEASKLASGVPSRFSGSGSGAEFTLTISSLQPDDFATYYCLGEFSCGSGDCLAFGQGTKLTVL
notes: IgG
B14: MYT11352 (antibody, V domains shown)
VH: EVQLVESGGGLVQPGGSLRLSCTASGIDLSNYAVIWVRQAPGKGLEWVGIIYHYDTTYYANWAKGRFTISRDTSKNTVYLQMNSLRAEDTAVYFCARSFSDISDLIKLWGQGTLVTVSS
VL: EIVMTQSPSTLSASVGDRVIITCQASQSLYNNKDLAWYQQKPGKAPKLLIYEASKLASGVPSRFSGSGSGAEFTLTISSLQPDDFATYYCLGEFSCGSGDCLAFGQGTKLTVL
notes: IgG
B15: MYT11354 (antibody, V domains shown)
VH: EVQLVESGGGLVQPGGSLRLSCTASGIDLSNYAVIWVRQAPGKGLEWVGIIYTYHTTYYANWAKGRFTISRDTSKNTVYLQMNSLRAEDTAVYFCARSFSDISDLIKLWGQGTLVTVSS
VL: EIVMTQSPSTLSASVGDRVIITCQASQSLYNNKDLAWYQQKPGKAPKLLIYEASKLASGVPSRFSGSGSGAEFTLTISSLQPDDFATYYCLGEFSCGSGDCLAFGQGTKLTVL
notes: IgG
B16: MYT11356 (antibody, V domains shown)
VH: EVQLVESGGGLVQPGGSLRLSCTASGIDLSNYAVIWVRQAPGKGLEWVGIIYTYDTHYYANWAKGRFTISRDTSKNTVYLQMNSLRAEDTAVYFCARSFSDISDLIKLWGQGTLVTVSS
VL: EIVMTQSPSTLSASVGDRVIITCQASQSLYNNKDLAWYQQKPGKAPKLLIYEASKLASGVPSRFSGSGSGAEFTLTISSLQPDDFATYYCLGEFSCGSGDCLAFGQGTKLTVL
notes: IgG
B17: MYT11355 (antibody, V domains shown)
VH: EVQLVESGGGLVQPGGSLRLSCTASGIDLSNYAVIWVRQAPGKGLEWVGIIYTYDHTYYANWAKGRFTISRDTSKNTVYLQMNSLRAEDTAVYFCARSFSDISDLIKLWGQGTLVTVSS
VL: EIVMTQSPSTLSASVGDRVIITCQASQSLYNNKDLAWYQQKPGKAPKLLIYEASKLASGVPSRFSGSGSGAEFTLTISSLQPDDFATYYCLGEFSCGSGDCLAFGQGTKLTVL
notes: IgG
B18: MYT11357 (antibody, V domains shown)
VH: EVQLVESGGGLVQPGGSLRLSCTASGIDLSNYAVIWVRQAPGKGLEWVGIIYTYDTTHYANWAKGRFTISRDTSKNTVYLQMNSLRAEDTAVYFCARSFSDISDLIKLWGQGTLVTVSS
VL: EIVMTQSPSTLSASVGDRVIITCQASQSLYNNKDLAWYQQKPGKAPKLLIYEASKLASGVPSRFSGSGSGAEFTLTISSLQPDDFATYYCLGEFSCGSGDCLAFGQGTKLTVL
notes: IgG

target: T1, Human PTK7/CCK4 Protein, His Tag, Acro Biosystems PT7-H52H3 (human, UniProt Q13308 31-704); experiment: BLI, antibody on anti-human Fc sensor, 50 nM PTK7
T1 construct: bought protein; also called Human PTK7 Protein, His Tag, Acro Biosystems; not shown: His tag
T1 sequence: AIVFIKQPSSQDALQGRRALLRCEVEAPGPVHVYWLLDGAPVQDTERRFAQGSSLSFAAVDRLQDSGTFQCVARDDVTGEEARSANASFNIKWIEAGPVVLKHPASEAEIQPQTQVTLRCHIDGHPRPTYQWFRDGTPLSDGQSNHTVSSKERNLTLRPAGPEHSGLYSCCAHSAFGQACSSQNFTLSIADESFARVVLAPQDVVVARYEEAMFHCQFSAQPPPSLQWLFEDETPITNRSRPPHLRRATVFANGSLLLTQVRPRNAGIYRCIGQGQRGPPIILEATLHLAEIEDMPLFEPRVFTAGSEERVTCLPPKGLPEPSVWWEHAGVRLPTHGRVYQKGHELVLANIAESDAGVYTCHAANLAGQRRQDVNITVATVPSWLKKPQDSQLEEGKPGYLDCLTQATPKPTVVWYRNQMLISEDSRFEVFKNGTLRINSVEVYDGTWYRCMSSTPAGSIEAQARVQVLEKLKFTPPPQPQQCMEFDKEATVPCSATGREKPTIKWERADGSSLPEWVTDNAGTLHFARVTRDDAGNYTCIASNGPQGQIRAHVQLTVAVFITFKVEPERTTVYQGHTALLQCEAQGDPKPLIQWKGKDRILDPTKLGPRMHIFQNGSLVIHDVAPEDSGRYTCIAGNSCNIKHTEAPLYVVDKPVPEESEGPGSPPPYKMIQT

Binding result, binds:
B1
B2
B3
B4
B5
B6
B7
B8
B9
B10
B11
B12
B13
B14
B15
B16
B17
B18
